Measurements taken from patent US20220387572A1 (CRISPR THERAPEUTICS, published 2022).

Target: T1, CD70 on human CD70+ renal cell carcinoma cell lines (A498, CD70 high; ACHN, CD70 low) (human, UniProt P32970 1-193)
T1 sequence (looked up): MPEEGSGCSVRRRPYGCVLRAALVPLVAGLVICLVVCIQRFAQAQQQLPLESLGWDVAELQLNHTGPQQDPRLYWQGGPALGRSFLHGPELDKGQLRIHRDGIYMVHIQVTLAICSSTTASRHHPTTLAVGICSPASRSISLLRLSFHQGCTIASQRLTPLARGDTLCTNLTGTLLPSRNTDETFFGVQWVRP
Assay: cell-based or functional assay

B1: anti-CD70 CAR (CD70B scFv with 41BB), expressed on CTX130 cells (TRAC-/β2M-/CD70-/anti-CD70 CAR+ T cells) (other)
chain: QVQLVQSGAEVKKPGASVKVSCKASGYTFTNYGMNWVRQAPGQGLKWMGWINTYTGEPTYADAFKGRVTMTRDTSISTAYMELSRLRSDDTAVYYCARDYGDYGMDYWGQGTTVTVSSGGGGSGGGGSGGGGSGDIVMTQSPDSLAVSLGERATINCRASKSVSTSGYSFMHWYQQKPGQPPKLLIYLASNLESGVPDRFSGSGSGTDFTLTISSLQAEDVAVYYCQHSREVPWTFGQGTKVEIKSAAAFVPVFLPAKPTTTPAPRPPTPAPTIASQPLSLRPEACRPAAGGAVHTRGLDFACDIYIWAPLAGTCGVLLLSLVITLYCNHRNRKRGRKKLLYIFKQPFMRPVQTTQEEDGCSCRFPEEEEGGCELRVKFSRSADAPAYQQGQNQLYNELNLGRREEYDVLDKRRGRDPEMGGKPRRKNPQEGLYNELQKDKMAEAYSEIGMKGERRRGKGHDGLYQGLSTATKDTYDALHMQALPPR
- cell killing (CellTiter-Glo), TRAC-/β2M-/CD70-/anti-CD70 CAR+ T cells on CD70+ A498 cells, 24 h, T cell:A498 ratios 1:1 and 0.5:1: > 90%
- cell killing (CellTiter-Glo), TRAC-/β2M-/anti-CD70 CAR+ T cells (2xKO) on CD70+ A498 cells, 24 h, T cell:A498 ratios 1:1 and 0.5:1: < 90%
